For experiment [1], the target named is GST-pCD3γCD fusion protein (UniProt P09693). As to the kind of experiment: ELISA. For orientation: In an ELISA, binding on a coated surface is turned into a signal by an enzyme label.
For experiment [2], the target named is phosphorylated cytosolic domain of the TCR γ-chain (pCD3γCD) (UniProt P09693). In words: BLI.

In experiment [1], “ZAP-70 phenylalanine mutant Y315/Y319F, kinase-dead (FFDN) (from UniProt P43403 1-619) (enzyme)” came in with a fold concentration needed, against YY, to compete similarly of 3 fold. Further, in experiment [2], the KD2 (weak set), fold against its KD1 is 10 fold; the koff1, ratio against AADN and tSH2 amounted to 0.5 fold; the koff2 (weak set), fold against its koff1 was found to be 20 fold; the kon1, fold against AADN and tSH2 turned out to be 2 fold. In experiment [2], this substance returned a kon2 (weak set), fold against its kon1 of 2 fold.
“kinase-dead D461N mutant of ZAP-70 (YYDN) (from UniProt P43403 1-619) (enzyme)”: in experiment [2], the KD2 (weak set), fold against its KD1 turned out to be 10 fold; the koff1, ratio against AADN and tSH2 was found to be 0.5 fold; the koff2 (weak set), fold against its koff1 stood at 20 fold; the kon1, fold against AADN and tSH2 was 2 fold. This substance registered a kon2 (weak set), fold against its kon1 in experiment [2] of 2 fold.
As to “recombinant tSH2 module of ZAP-70 (aa 1–256) (from UniProt P43403 1-256) (domain or fragment)”, the Kd (usually the concentration at which binding is half-saturated) in experiment [2] stood at 10 nM.

These data come from article PMC4605427.
